Experimental findings from US20030143712A1 (J DAVID GLADSTONE INSTITUTES, published 2003) are described below.

The target in one series is T1, endogenous HDAC3, O15379.
T1 chain: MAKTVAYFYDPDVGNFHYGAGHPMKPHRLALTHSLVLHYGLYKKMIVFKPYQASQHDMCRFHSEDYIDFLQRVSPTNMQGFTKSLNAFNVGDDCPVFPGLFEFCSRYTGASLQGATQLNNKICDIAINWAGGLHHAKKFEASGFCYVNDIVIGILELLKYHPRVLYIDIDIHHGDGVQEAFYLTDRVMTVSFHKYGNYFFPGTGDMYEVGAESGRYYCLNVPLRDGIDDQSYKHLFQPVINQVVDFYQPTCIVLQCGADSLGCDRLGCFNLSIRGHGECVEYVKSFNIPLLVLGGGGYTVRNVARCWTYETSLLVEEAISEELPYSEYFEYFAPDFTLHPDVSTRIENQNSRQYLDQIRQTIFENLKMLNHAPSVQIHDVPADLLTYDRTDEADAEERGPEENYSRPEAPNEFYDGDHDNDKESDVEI

The target of a further series is endogenous HDAC1 (UniProt Q13547 1-482). As to the kind of experiment: GST pull-down from SupT1 cell extracts, western blot.
The target of the next series is endogenous HDAC2 (UniProt Q92769 1-488). Described as above.
Chain of endogenous HDAC2 (Q92769 whole entry): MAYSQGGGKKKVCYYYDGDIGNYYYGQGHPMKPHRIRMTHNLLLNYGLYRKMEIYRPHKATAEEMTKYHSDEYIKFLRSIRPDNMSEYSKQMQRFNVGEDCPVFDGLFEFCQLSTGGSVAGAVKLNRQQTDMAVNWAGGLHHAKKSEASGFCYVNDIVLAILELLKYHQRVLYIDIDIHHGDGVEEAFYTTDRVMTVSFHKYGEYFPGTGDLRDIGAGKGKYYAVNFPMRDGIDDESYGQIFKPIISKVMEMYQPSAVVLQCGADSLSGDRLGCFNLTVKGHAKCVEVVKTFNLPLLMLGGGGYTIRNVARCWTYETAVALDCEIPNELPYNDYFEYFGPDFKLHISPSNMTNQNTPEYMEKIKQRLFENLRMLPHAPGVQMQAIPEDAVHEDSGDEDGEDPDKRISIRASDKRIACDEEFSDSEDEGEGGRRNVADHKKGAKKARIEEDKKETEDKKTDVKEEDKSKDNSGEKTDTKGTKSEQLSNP

Chain of endogenous HDAC1 (Q13547 whole entry): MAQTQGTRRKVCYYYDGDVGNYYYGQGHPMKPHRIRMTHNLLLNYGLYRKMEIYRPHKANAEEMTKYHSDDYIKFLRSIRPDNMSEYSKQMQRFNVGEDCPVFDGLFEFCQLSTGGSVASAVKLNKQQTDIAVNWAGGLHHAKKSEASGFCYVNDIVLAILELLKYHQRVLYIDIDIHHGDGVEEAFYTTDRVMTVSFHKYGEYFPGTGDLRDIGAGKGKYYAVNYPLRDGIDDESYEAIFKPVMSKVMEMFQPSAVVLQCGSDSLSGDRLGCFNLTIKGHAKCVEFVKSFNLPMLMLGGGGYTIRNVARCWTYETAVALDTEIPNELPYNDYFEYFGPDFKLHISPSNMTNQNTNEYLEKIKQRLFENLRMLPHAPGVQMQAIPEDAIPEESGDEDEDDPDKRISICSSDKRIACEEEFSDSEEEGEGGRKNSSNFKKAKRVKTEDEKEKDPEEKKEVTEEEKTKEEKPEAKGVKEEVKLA
Experimental for endogenous HDAC1: (§1) After incubation for 3 hours at 4° C. with rocking, reactions were washed three times in IPLS, three times in the same buffer but at 1 M NaCl, and two times in HD buffer (Fischle et al., supra). Pulldown reactions were split, and either processed for histone deacetylase activity assays or for western blotting. For pulldown reactions with ³⁵S-labeled proteins, cDNAs were transcribed and translated with the TNT reticulocyte system (Promega). The labeling reaction (5 μl) was incubated with GST fusion proteins in a total volume of 200 μl of GST buffer (20 mM Tris-HCl, pH 8.0, 150 mM KCl, 5 mM DTT, 2 mM EDTA, 10% glycerol, 0.5% non fat dry milk, 0.1% NP-40) for 1 h at 4° C. with rocking. Reactions were washed five times in the same buffer, and bound proteins were resolved on denaturing SDS-PAGE gels for analysis by autoradiography.
(§2) After extensive washing, the bound material was tested for HDAC activity.
Experimental for endogenous HDAC2: as §1, §2

B1: GST-HDAC7(aa 438-912) (enzyme)
chain: QGGHRPLSRAQSSPAAPASLSAPEPASQARVLSSSETPARTLPFTTGLIYDSVMLKHQCSCGDNSRHPEHAGRIQSIWSRLQERGLRSQCECLRGRKASLEELQSVHSERHVLLYGTNPLSRLKLDNGKLAGLLAQRMFVMLPCGGVGVDTDTIWNELHSSNAARWAAGSVTDLAFKVASRELKNGFAVVRPPGHHADHSTAMGFCFFNSVAIACRQLQQQSKASKILIVDWDVHHGNGTQQTFYQDPSVLYISLHRHDDGNFFPGSGAVDEVGAGSGEGFNVNVAWAGGLDPPMGDPEYLAAFRIVVMPIAREFSPDLVLVSAGFDAAEGHPAPLGGYHVSAKCFGYMTQQLMNLAGGAVVLALEGGHDLTAICDASEACVAALLGNRVDPLSEEGWKQKPNLNAIRSLEAVIRVHSKYWGCMQRLASCPDSWVPRVPGADKEEVEAVTALASLSVGILAEDRPSEQLVEEEEP
notes: also called active GST-HDAC7; not shown: glutathione-S-transferase (GST) of the pGEX4T1 vector (Pharmacia), N-terminal fusion partner
Consider B1, for which the HDAC activity associated with the GST pull-down from GST-HDAC4 depleted lysate against GST depleted lysate (fold reduction) with endogenous HDAC3, O15379 turned out to be 3. Moreover, the binding result with endogenous HDAC1 and with endogenous HDAC2 was “no binding” throughout.
